Target: T1, RV3 preF OnlyEcto (Human respirovirus 3 (HPIV3), strain …, stabilised)
T1 construct: also called RV3 preF lead candidate; source: Expi293F, transfected, purified (Capto Q Impress, SEC)
Assay: BLI; kinetic Octet; […] (0-900 s), […] (900-1800 s)
Settings: both partners purified

B1: single-domain antibody (sdAb) 4C06 (VHH)
VHH: EVQLVESGGGLVQPGGSLRLSCSASGSLSTIKALGWYRRAPGRERELVASITSAGETNYADSAKGRFTVSTDNAKNTVDLRMNSLKPEDTAVYYCYAESFVLNIYWGQGTQVTVSS
notes: also called VHH 4C06
B1: binds.
